From patent publication US20210363269A1 (ALX ONCOLOGY, published 2021)

T1: NOD mouse SIRP-α (mouse (NOD strain))
T1 chain: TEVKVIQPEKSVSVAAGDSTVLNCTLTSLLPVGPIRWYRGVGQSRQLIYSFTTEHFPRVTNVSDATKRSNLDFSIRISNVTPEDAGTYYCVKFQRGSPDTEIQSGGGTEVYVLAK

T2: BL6 mouse SIRP-α (mouse (C57BL/6 strain), UniProt P97797 32-148)
T2 construct: also called C57BL/6
T2 sequence: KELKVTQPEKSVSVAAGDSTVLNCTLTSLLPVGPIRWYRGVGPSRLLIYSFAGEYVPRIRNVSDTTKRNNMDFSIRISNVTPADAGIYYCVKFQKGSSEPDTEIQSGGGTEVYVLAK

T3: BALBc mouse SIRP-α (mouse (BALB/c strain))
T3 chain: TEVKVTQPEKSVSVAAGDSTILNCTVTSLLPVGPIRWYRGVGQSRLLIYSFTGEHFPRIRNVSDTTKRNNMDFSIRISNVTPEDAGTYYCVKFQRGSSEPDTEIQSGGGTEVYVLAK

T4: cynomolgus SIRP-α D1 domain (cyno2) (cynomolgus monkey, UniProt Q5TFQ8 30-148 (human entry), limits assumed)
T4 chain: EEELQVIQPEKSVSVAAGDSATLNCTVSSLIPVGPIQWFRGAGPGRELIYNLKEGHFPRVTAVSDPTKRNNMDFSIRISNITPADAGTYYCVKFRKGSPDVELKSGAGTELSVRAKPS

T5: C57BL/6 mouse SIRP-α D1 domain (mouse (C57BL/6 strain), UniProt P97797 32-148)
T5 sequence: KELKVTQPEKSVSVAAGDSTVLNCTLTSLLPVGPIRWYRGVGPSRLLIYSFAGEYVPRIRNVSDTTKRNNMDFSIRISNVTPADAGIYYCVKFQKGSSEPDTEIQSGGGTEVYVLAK

T6: mouse 129 SIRP-α D1 domain (mouse (129 strain), UniProt P97797 32-150)
T6 construct: also called m129
T6 chain: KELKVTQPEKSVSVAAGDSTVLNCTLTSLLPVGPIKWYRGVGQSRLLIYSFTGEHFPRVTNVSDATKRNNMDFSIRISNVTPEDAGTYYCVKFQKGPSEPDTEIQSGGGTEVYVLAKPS


How the values were obtained:
NOD mouse SIRP-α = target: T1, NOD mouse SIRP-α; assay: SPR
How it was run: (§1)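 Runs took place at 25° C in PBS pH 7.4 containing 0.01% Tween-20 on a ProteOn XPR36 biosensor, with purified antibodies either amine-coupled to a GLC chip or captured through biotinylated Protein A on an NLC chip. SIRP analytes went in by one-shot kinetic injection at nominal concentrations based on A280 absorbance. Apparent rate constants came from a global simple Langmuir fit of double-referenced data, and KD was calculated as kd/ka.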

BL6 mouse SIRP-α = target: T2, BL6 mouse SIRP-α; assay: SPR
How it was run: as §1

human SIRP-α v1 = target: T7, human SIRP-α v1 (human, UniProt P78324 31-149); assay: SPR
T7 construct: also called Human v1; Human V1
T7 sequence (P78324 31-149 limits assumed): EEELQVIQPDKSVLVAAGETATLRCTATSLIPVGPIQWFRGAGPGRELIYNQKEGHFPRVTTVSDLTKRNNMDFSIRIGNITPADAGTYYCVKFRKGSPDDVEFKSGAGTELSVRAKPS
How it was run: as §1

BALBc mouse SIRP-α = target: T3, BALBc mouse SIRP-α; assay: SPR
How it was run: as §1

human SIRPβ isoform 1 = target: T8, human SIRPβ isoform 1 (human, UniProt O00241 30-148); assay: SPR, Langmuir fit
T8 construct: also called SIRPb; sirpb1
T8 sequence (O00241 30-148 limits assumed): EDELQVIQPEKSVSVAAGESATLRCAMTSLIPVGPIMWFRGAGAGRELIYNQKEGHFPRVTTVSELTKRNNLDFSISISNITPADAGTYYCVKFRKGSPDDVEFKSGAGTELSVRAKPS
How it was run: (§2)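 scFv-Fc antibody clones were captured from pre-filtered culture media onto anti-human IgG Fc, amine-coupled at about 4000 RU on a GLC chip in a ProteOn XPR36 instrument. SIRP analytes were passed over in PBS pH 7.4 with 0.01% Tween-20 at 25° C, and responses were double-referenced against interspot and buffer-blank signals. Curves were fitted to a 1:1 Langmuir model. Dissociation rate constants (koff) were taken from those fits.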

[1] = target: T4, cynomolgus SIRP-α D1 domain (cyno2); assay: SPR, Langmuir fit
How it was run: as §2

[2] = target: T9, human SIRP-α v1 D1 domain (human, UniProt P78324 31-149); assay: SPR, Langmuir fit
T9 construct: also called human v1
T9 sequence (P78324 31-149 limits assumed): as the sequence (P78324 31-149 limits assumed) above
How it was run: as §2

[3] = target: T10, human SIRP-α v2 D1 domain (human); assay: SPR, Langmuir fit
T10 construct: also called human v2
T10 sequence (chain, as listed by the source limits assumed): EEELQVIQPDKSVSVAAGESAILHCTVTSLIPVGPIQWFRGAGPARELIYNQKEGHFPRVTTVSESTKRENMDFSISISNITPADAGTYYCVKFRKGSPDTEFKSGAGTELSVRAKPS
How it was run: as §2

[4] = target: T5, C57BL/6 mouse SIRP-α D1 domain; assay: SPR
How it was run: as §2

human SIRPγ isoform 1 = target: T11, human SIRPγ isoform 1 (human, UniProt Q9P1W8 29-147); assay: SPR
T11 construct: also called SIRPg; sirpg
T11 sequence (Q9P1W8 29-147 limits assumed): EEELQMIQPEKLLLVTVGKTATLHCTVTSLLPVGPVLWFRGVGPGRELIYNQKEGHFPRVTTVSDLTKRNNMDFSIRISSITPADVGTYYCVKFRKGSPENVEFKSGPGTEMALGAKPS
How it was run: as §2

[5] = target: T6, mouse 129 SIRP-α D1 domain; assay: SPR
How it was run: as §2

Row | Kd (NOD mouse SIRP-α) [nM] | Kd (BL6 mouse SIRP-α) [nM] | Kd (human SIRP-α v1) [nM] | Kd (BALBc mouse SIRP-α) [nM] | koff (human SIRPβ isoform 1) [s⁻¹] | koff [1] [s⁻¹] | koff [2] [s⁻¹] | koff [3] [s⁻¹] | Binder | binding result [4] | binding result (human SIRPγ isoform 1) | binding result [5]
1 | 4.83 | 10.3 | 0.00519 | 7.25 | – | – | – | – | Hum1/AB25_HC_Mutall (antibody, V domains shown) VH: EVQLVESGGGVVQPGGSLRLSCAASGFTFSSNAMSWVRQAPGKGLEWVAGISSGSDTYYGDSVKGRFTISRDNSKNTLYLQMNSLTAEDTAVYYCARETWNHLFDYWGQGTLVTVSS VL: SYELTQPPSVSVSPGQTARITCSGGSYSSYYYAWYQQKPGQAPVTLIYSDDKRPSNIPERFSGSSSGTTVTLTISGVQAEDEADYYCGGYDQSSYTNPFGGGTKLTVL | – | – | –
2 | 61.2 | 11.5 | 0.0129 | 38.3 | – | – | – | – | Hum9/AB25_HC_Mutall (antibody, V domains shown) VH: EVQLVESGGGVVQPGGSLRLSCAASGFTFSSNAMSWVRQAPGKGLEWVAGISSGSDTYYGDSVKGRFTISRDNSKNTLYLQMNSLTAEDTAVYYCARETWNHLFDYWGQGTLVTVSS VL: SYELTQPPSVSVSPGQTARITCSGGAYSSYYYAWYQQKPGQAPVLVIYSDDKRPSGIPERFSGSSSGTTVTLTISGVQAEDEADYYCGGYDQSSYTNPFGGGTKLTVL | – | – | –
3 | 20.5 | 497000 | 0.0262 | 59.9 | – | – | – | – | Hum8/AB25_HC_Mutall (antibody, V domains shown) VH: EVQLVESGGGVVQPGGSLRLSCAASGFTFSSNAMSWVRQAPGKGLEWVAGISSGSDTYYGDSVKGRFTISRDNSKNTLYLQMNSLTAEDTAVYYCARETWNHLFDYWGQGTLVTVSS VL: SYELTQPPSVSVSPGQTARITCSGGAYSSYYYAWYQQKPGQAPVLVIYSDSKRPSGIPERFSGSSSGTTVTLTISGVQAEDEADYYCGGYDQSSYTNPFGGGTKLTVL | – | – | –
4 | 2.92 | 9.03 | 0.00437 | 5.77 | – | – | – | – | Hum1/AB27_HC_Mutall (antibody, V domains shown) VH: EVQLVESGGGVVQPGGSLRLSCAASGFRFSSYAMSWVRQAPGKGLEWVSGISSGGDTYYVDSVKGRFTISRDNSKNTLYLQMNSLRAEDTAVYYCARETWNHLFDYWGQGTLVTVSS VL: SYELTQPPSVSVSPGQTARITCSGGSYSSYYYAWYQQKPGQAPVTLIYSDDKRPSNIPERFSGSSSGTTVTLTISGVQAEDEADYYCGGYDQSSYTNPFGGGTKLTVL | – | – | –
5 | – | – | – | – | 0.000331 | 0.00258 | 0.00415 | 0.000544 | S149 (scFv, V domains shown, scFv-Fc format (VL-linker-VH on human IgG1 Fc)) VH: DVQLVESGGGVVRPGESLRLSCAASGFTFSNFAMNWVRQAPGEGLEWVSLISVTATTYYADSVKGRFTISRDNSKNTLYLQMNSLRAEDTAVYYCAKVTWNNLFDYWGLGTLVTVSS VL: EIVLTQSPGTLSLSPGERATLSCRASQPIDSYLAWYQQKPGQAPRLLIYNTVTRATGIPDRFSGSGSGTDFTLTINRLEPEDFAVYYCQHQYDWPPYIFGGGTKVEIK | no binding (tested: Koff > 5 × 10^3 (legend)) | no binding (tested: Koff > 5 × 10^3 (legend)) | no binding (tested: Koff > 5 × 10^3 (legend))
